Target: MBP-mCherry-YY1 (Homo sapiens, UniProt P25490 1-414)
Test: EMSA; 10 uM Zn2+, 100 mM KCl, no polyP; 2 uM protein, 25 nM probe; Motif EMSA: 10 mM Tris pH 7.5, 50 mM KCl, DTT, Tween 20, 5 mM MgCl2, ~25 nM probe, room temperature 30 min; G4 EMSA: 10 mM Tris-HCl pH 7.5, 100 mM KCl, 10 uM Zn, 1 mM DTT, 3% glycerol, room temperature 30 min; anisotropy: same without glycerol, on ice 30 min
Settings: protein: recombinant; tags: N-MBP-TEV, C-mCherry; label: 5' IRDye 700 on strand 1; G4 as stated by authors, annealed with S4 in 100 mM KCl; S3/S4 otherwise pair with mismatches

Sequence of MBP-mCherry-YY1 (P25490 whole entry): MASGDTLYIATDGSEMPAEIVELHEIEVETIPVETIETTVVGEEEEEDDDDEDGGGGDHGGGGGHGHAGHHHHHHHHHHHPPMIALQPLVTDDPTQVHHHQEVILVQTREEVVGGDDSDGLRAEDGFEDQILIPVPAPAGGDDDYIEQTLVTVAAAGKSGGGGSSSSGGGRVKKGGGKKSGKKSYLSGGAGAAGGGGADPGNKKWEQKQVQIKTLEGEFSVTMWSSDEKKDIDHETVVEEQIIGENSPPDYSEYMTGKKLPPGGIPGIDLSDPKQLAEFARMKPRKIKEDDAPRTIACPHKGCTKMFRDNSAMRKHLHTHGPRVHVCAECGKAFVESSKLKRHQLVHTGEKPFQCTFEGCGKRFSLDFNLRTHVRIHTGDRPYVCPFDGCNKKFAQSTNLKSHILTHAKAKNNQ

B1: human telomere G4 (hTEL) probe (structured_DNA)
DNA 1: AAAGGGTTAGTGTTAGTGTTAGGGAA
DNA 2: TTCCCTAACCCTAACCCTAACCCTTT
B1: binds.

— article PMC13202173, “Polyphosphate as a novel regulator of super-enhancer complexes: disruption of phase separation and gene expression”
